Entries after “also recorded” stand apart in the source; their conditions may differ.
Legend:
[1] = In vivo Mdh activity in cell suspensions of recombinant E. coli (formaldehyde accumulating in supernatant); assay type: cell-based; settings: 37° C., −Act; E. coli cell suspension
Description: (§1) The genes coding for Mdh and the Mdh activator protein Act were amplified from pET21a-plasmids harboring genes from B. methanolicus strains MGA3 (mdh-MGA3, mdh2-MGA3, mdh3-MGA3 and act-MGA3) and PB1 (mdh-PB1, mdh1-PB1 and mdh2-PB1). The genes were then cloned either into the pSEVA424 plasmid (mdh genes) or in the pSEVA131 plasmid (act gene). For cloning of mdh-MGA3, mdh-PB1, mdh1-PB1 and act-MGA3, EcoRI and HindIII restrictions sites were used, while mdh2-MGA3, mdh2-PB1 and mdh3-MGA3 were cloned by using EcoRI and PstI restriction sites. The resulting expression vectors were transformed into electrocompetent wt E. coli K-12 (BW25113) and into E. coli K-12 (BW25113) with a deleted frmA gene.
(§2) Expression Experiments For expression experiments, the cells were cultivated in either Luria-Bertani (LB) medium for in vitro assays or in M9 medium for in vivo assays both containing 20 μg/ml streptomycin for pSEVA424. When Act was co-expressed the medium was supplemented with 100 μg/ml ampicillin. Expression was induced when cells reached OD 0.5 (for in vitro tests) or OD 1 (for in vivo tests) by adding 0.1 mM IPTG (final concentration) for 6 hours. Cells were then harvested by centrifugation. For in vitro assays, crude cell extract was prepared by lysing the cells in a French press following ultracentrifugation. Alternatively, cells were resuspended in M9-medium without glucose for in vivo activity measurements. Enzyme Assays
In vivo measurements of Mdh activity: For determination of Mdh activity in cell suspensions, cells were harvested after IPTG induction, washed and resuspended in M9-medium without glucose and IPTG. OD600 was set to 1 for normalization. […] The assay was started by addition of 1 M methanol and subsequent measurement of accumulating formaldehyde in the supernatant resulting from the methanol dehydrogenase catalyzed oxidation of methanol. The calculated activities were based on the assumption that 1 l of an OD1 culture contains 0.3 g biomass of which 50% is protein.

[2] = In vitro Mdh activity in crude cell extracts of recombinant E. coli; assay type: biochemical; settings: −Act, expressed in E. coli, crude cell extract
Description: as §1, §2
In vitro measurements of Mdh activity: For determination of Mdh activity in crude cell extracts, the Mdh dependent formation of NADH was monitored at 340 nm. The assays were performed either at 37° C. or 45° C. in prewarmed buffer solutions. The Mdh assay contained 10-20 μg enzyme, 50 mM K2HPO4-buffer, pH7.4, 2.5 mM MgCl and 0.5 mM of NAD^+ (final concentrations). After 5 min of preincubation, the reaction was started with 1 M of methanol (final concentration).

[3] = Substrate specificity of purified MDH proteins on alternative alcohols; assay type: biochemical; settings: all alternative alcohol substrates
Procedure: FIG. 3. Catalytic activities of purified Mdh (black), Mdh2 (dark grey) and Mdh3 (light grey) on various alcohols (200 mM) tested in vitro. (A) Substrate specificity was analysed for MDHs from B. methanolicus MGA3 in vitro. Alcohol substrates were used at concentrations of 500 mM except for pentanol (300 mM) and hexanol (50 mM). The data were calculated from the mean value from two experiments which were done in triplicate. (B) Substrate specificity for MDHs from B. methanolicus PB1 was analysed in vitro. Alcohol substrates were used at concentrations of 500 mM except for pentanol (300 mM) and hexanol (50 mM). The data were calculated from the mean value from two experiments which were done in triplicate.
Alcohol dehydrogenase activities were measured spectrophotometrically essentially as described previously (Hektor, Kloosterman et al. (2002) Chem 277(49): 46966-46973) and the reaction mixture contained: 100 mM Glycine-KOH pH 9.5 (unless otherwise stated), 5 mM MgSO4, 0.5 mM NAD^+ and 500 mM alcohol (methanol, ethanol, propanol, 1,3-propanediol, or butanol). NAD^+ was substituted with equal concentrations of NADP^+, FMN^+, and FAD^+, when indicated. […] The reactions were started by addition of 5-40 μg of the purified MDH proteins, and the production of NADH was monitored at 340 nm for 4 minutes. […]

[4] = Formaldehyde reductase assay of purified MDH proteins; assay type: biochemical; settings: 45° C., formaldehyde reductase activity
Procedure: (§3) Alcohol dehydrogenase activities were measured spectrophotometrically essentially as described previously (Hektor, Kloosterman et al. (2002) Chem 277(49): 46966-46973) and the reaction mixture contained: 100 mM Glycine-KOH pH 9.5 (unless otherwise stated), 5 mM MgSO4, 0.5 mM NAD^+ and 500 mM alcohol (methanol, ethanol, propanol, 1,3-propanediol, or butanol). NAD^+ was substituted with equal concentrations of NADP^+, FMN^+, and FAD^+, when indicated. The reaction mixture for measurements of formaldehyde reductase activity contained: 50 mM Potassium-phosphate buffer pH=6.7, 0.15 mM NADH, 1 mM DTT and 11.6 mM (0.1-116 mM) formaldehyde. The assay components were mixed in the cuvette and pre-warmed to 45° C., unless otherwise stated. The reactions were started by addition of 5-40 μg of the purified MDH proteins, and the production of NADH was monitored at 340 nm for 4 minutes. One unit of MDH activity was defined as the amount of enzyme needed to produce 1 μmol NADH per minute under the conditions described above. Purified Act (0.1-40 μg) or NudF (20 μg) proteins were added to the reaction mixtures as indicated in the text.
(§4) The purified MDH and Act proteins (20 μg) were used in the kinetic experiments performing the methanol dehydrogenase and the formaldehyde dehydrogenase assays essentially as described above. […] For determination of the Km for NAD^+ (Km,NAD+) and Vmax, the methanol concentration was kept constant at a saturating level (500 mM), while the concentration of NAD^+ was varied (5-1000 μM). […] Act (20 μg) was added to the reaction mixtures for determination of Kμ,MεOH and Vmax values in the presence of this activator, as indicated in the text. In general, the slopes of activity versus time were linear in the measured period (data not shown). Km and Vmax values were calculated by using nonlinear regression with the Microsoft Excel solver-tool to fit the measured data to the Michaelis-Menten equation, as described previously (Jakobsen et al., (2009) Appl Environ Microbiol 75(3): 652-661). The values obtained from the regression were then compared to the values obtained from Lineweaver-Burk and Hanes-Woolf plots to ensure that the global minimum, not a local minimum, had been found.

[5] = Methanol dehydrogenase assay of purified recombinant MDH proteins (NADH production at 340 nm); assay type: biochemical
Procedure: as §3, §4

[6] = Heat stability: pre-incubation of purified MDHs at 45° C. or 60° C. prior to the enzyme assay; assay type: biochemical; settings: preincubation at 60° C.; compared to the remaining MDHs
Procedure: FIG. 5. (A) Temperature stability of MGA3 Mdh, Mdh2 and Mdh3 was tested in vitro. Enzymes were incubated at 45° C. or at 60° C. prior to the enzyme assay. (B) Temperature stability of PB1 Mdh, Mdh1 and Mdh2 was tested in vitro. Enzymes were incubated at 45° C. or at 60° C. prior to the enzyme assay.
The heat stability of the six MDHs was tested by pre-incubation of the proteins at 45° C. and 60° C. and samples were taken at different time points for enzyme assays. As expected, all enzymes retained essentially all catalytic activity upon preincubations at 45° C. (FIG. 5). […] A selection of the experiments was repeated in the presence of equal amounts of purified Act, and this had no effect on temperature stability for any of the MDHs (data not shown).

B1: Mdh2-PB1: NAD-dependent methanol dehydrogenase encoded by chromosomal gene mdh2-PB1 of B. methanolicus PB1, SEQ ID NO. 6 (protein)
chain: MTNTQSIFYIPSVNLFGPGSVNEVGTRLAGLGVKKALLVTDAGLHGLGLSEKIASIIREAGVEVLIFPKAEPNPTDKNVAEGLEVYNAENCDSIVTLGGGSSHDAGKGIALVAANGGTIYDYEGVDKSKKPMVPLIAINTTAGTGSELTRFTIITDTERKVKMAIVDKHVTPTLSINDPELMVGMPPSLTAATGLDALTHAIEAYVSTAATPITDALAIQAIKIISKYLPRAFANGKDMEAREQMAFAQSLAGMAFNNASLGYVHAIAHQFGGFYNFPHGVCNAILLPHVCRFNLISKVERFAEIAALLGENVAGLSTREAAEKGIKAIERMAKDLNIPRGFKELGAKEEDIVTLAENAMKDATALTNPRKPKLEEVIQIIKNAM
modifications: Bacillus methanolicus PB1
[1]
  In vivo activity: 3 mU/mg
[2]; 37° C.
  In vitro activity: 33 mU/mg
[2]; 45° C.
  In vitro activity: 103 mU/mg
[3]
  catalytic activity on alternative alcohols compared with the remaining MDHs: significantly higher catalytic activity than the remaining enzymes
[4]
  Vmax, variable substrate Formaldehyde: 1.12 U/mg
[4]; read-out: Km, variable substrate Formaldehyde
  Km: 1.3 mM
[5]; 45° C., pH 9.5, 20 μg MDH + 20 μg Act
  Vmax, variable substrate Methanol + Act: 0.24 U/mg
[5]; 45° C., pH 9.5, 20 μg MDH + 20 μg Act, read-out: Km, variable substrate Methanol + Act
  Km: 36 mM
[5]; 45° C., pH 9.5, absence of Act
  Vmax, variable substrate Methanol: 0.065 U/mg
[5]; Act added vs. no Act
  reduction of Km,MeOH in the presence of Act: 4 fold
[6]
  temperature stability in vitro (in words): Higher Temperature Stabilities; also recorded: only moderate negative effects; also recorded: improved thermostability

— patent US9322000B2, “Methanol dehydrogenase enzymes from Bacillus” (Sinvent AS, priority 2012, dated 2016)
